Results reported in PMC5222588, “Binding of Myomesin to Obscurin-Like-1 at the Muscle M-Band Provides a Strategy for Isoform-Specific Mechanical Protection” (Structure(London, England:1993), 2017).

T1: obscurin third immunoglobulin domain (O3) (human, UniProt Q5VST9 236-331)
T1 construct: obscurin, human, third Ig domain (O3); Insoluble when expressed alone; source: E. coli, co-expressed with myomesin My4LMy5 from a bicistronic vector, purified as a complex (SEC); not shown: GST, N-terminal, cleaved
T1 sequence (looked up): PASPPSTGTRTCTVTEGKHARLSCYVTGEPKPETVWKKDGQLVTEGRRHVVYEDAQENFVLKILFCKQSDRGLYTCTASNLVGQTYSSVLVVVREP

T2: obscurin-like-1 third immunoglobulin domain (OL3) (human, UniProt O75147 251-339)
T2 construct: obscurin-like-1, human, third Ig domain (OL3); the printed contact residues F265 to V332 lie in it; Insoluble when expressed alone; obtained only by co-expression with myomesin; Construct limits are in the Supplemental Experimental Procedures; source: E. coli, co-expressed with myomesin from a bicistronic vector, purified as a complex (SEC); not shown: GST, N-terminal, cleaved
T2 sequence: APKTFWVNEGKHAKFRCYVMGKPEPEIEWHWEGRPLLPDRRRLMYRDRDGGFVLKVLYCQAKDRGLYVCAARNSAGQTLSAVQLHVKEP

B1: myomesin region encompassing the fourth and fifth Fn-III domains (My4LMy5) (domain or fragment, human)
chain: PAAPLDVKCLEANKDYIIISWKQPAVDGGSPILGYFIDKCEVGTDSWSQCNDTPVKFARFPVTGLIEGRSYIFRVRAVNKMGIGFPSRVSEPVAALDPAEKARLKSRPSAPWTGQIIVTEEEPSEGIVPGPPTDLSVTEATRSYVVLSWKPPGQRGHEGIMYFVEKCEAGTENWQRVNTELPVKSPRFALFDLAEGKSYCFRVRCSNSAGVGEPSEATEVTVVGDKLDIP
notes: myomesin (MYOM1), human, Fn-III domains My4 and My5 with the linker L between them; My4 begins near residue 510 (My4LH is 510-618); My5 is in the crystallised protein but invisible in the electron density; Construct limits are in the Supplemental Experimental Procedures; also called My4L (name of the part visible in the crystal); source: E. coli, co-expressed with GST-OL3 or GST-O3 from a …

Columns and labels:
[1] = molecular target: OL3:My4LMy5 complex (obscurin-like-1:myomesin heterodimer) (human) (UniProt O75147); experiment: SEC; Superdex S75 10/300; OL3:My4LMy5 complex injected at 3.0 and 8.2 mg/mL (0.082–0.225 mM); dimer of heterodimers to heterodimers
[2] = molecular target: OL3:My4LMy5 complex (obscurin-like-1:myomesin heterodimer) (human) (UniProt O75147); experiment: crystal structure; OL3:My4LMy5 complex at 3.0 mg/mL; 20% PEG8000, 0.1 M Tris-HCl pH 8.5, 0.2 M MgCl2, matrix microseeding; 3.1 Å, space group C2
[3] = molecular target: T1, obscurin third immunoglobulin domain …; experiment: SEC; GST-cleaved complexes co-expressed in E. coli from a bicistronic vector; SEC during purification; conditions: both partners purified
[4] = molecular target: T2, obscurin-like-1 third immunoglobulin …; experiment: as above; conditions: both partners purified

Molecule | dimer:monomer ratio at 8.2 mg/mL [1] | stoichiometry N [1] | stoichiometry N [2] | stoichiometry N [3] | stoichiometry N [4]
OL3:My4LMy5 complex (obscurin-like-1:myomesin heterodimer) (from UniProt O75147 251-339; P52179 510-739) | 30 % dimer | 2 | 2 |  | 
B1 |  |  |  | 1 | 1
